Assay results reported in PMC9472474.

Biological target: T1, GST-RBM45 (6xHis-GST) (human, UniProt Q8IUH3 1-476)
T1 sequence: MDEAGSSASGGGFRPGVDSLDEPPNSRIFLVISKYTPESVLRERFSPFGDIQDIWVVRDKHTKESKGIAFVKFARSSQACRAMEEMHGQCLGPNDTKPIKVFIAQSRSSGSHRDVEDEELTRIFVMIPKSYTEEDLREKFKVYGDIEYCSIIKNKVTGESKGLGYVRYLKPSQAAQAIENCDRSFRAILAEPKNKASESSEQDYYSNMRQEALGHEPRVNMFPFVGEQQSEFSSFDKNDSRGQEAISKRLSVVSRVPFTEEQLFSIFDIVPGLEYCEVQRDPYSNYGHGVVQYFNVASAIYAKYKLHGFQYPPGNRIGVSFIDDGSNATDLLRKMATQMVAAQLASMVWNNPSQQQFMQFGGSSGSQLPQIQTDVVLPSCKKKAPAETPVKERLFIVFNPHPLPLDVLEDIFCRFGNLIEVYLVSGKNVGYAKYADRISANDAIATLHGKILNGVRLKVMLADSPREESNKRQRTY
Assay: fluorescence polarization

B1: FAM m6A ssRNA (ssRNA)
RNA: UUCUUCUGUGGACUGUG
modifications: m6A at A12
B1 gave a Kd of 462 ± 73 nM.
